Five molecules from PMC10397247 can be followed below.

Assay in all cases: two-hybrid library CCNG1;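 note: natural log of median RNA to DNA barcode read ratio; higher means stronger binding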
In one experiment the target is T1, P12A.
T1 chain: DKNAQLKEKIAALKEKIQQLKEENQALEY

A further experiment concerns the target T2, P1A.
T2 chain: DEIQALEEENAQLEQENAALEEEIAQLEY

Another experiment has as its target T3, P2A.
T3 chain: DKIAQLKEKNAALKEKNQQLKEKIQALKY

For another experiment, the target named is T4, P3A.
T4 chain: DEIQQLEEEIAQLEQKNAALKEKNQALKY

In a further experiment the target is T5, P4A.
T5 chain: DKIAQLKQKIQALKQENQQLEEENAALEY

The next experiment deals with T6, P5A.
T6 chain: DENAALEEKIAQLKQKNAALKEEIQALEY

A further experiment concerns the target T7, P6A.
T7 chain: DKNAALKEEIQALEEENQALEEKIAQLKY

The target of a further experiment is T8, P7A.
T8 chain: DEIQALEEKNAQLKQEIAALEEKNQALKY

For a further experiment, the target named is T9, P8A.
T9 chain: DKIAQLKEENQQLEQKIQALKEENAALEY

The target of another experiment is T10, P9A.
T10 chain: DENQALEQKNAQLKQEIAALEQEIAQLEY

Another experiment addresses T11, P11A.
T11 chain: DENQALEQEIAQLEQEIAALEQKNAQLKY

The target of a further experiment is T12, 4H1158-bN.
T12 chain: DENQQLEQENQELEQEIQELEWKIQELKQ

For a further experiment, the target named is T13, 4H118-bN.
T13 chain: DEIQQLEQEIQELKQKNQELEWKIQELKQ

For a further experiment, the target named is T14, 4H170-bN.
T14 chain: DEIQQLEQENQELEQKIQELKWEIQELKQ

A further experiment addresses T15, 4H1831-bN.
T15 chain: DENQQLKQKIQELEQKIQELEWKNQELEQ

For another experiment, the target named is T16, 4H2586-bN.
T16 chain: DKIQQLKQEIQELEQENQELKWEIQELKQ

The next experiment concerns the target T17, 4H2627-bN.
T17 chain: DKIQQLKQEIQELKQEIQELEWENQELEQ

The target in another experiment is T18, 4H2673-bN.
T18 chain: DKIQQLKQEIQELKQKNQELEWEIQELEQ

The target in the next experiment is T19, 4H2702-bN.
T19 chain: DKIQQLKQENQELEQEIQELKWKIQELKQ

A further experiment deals with T20, 4H3010-bN.
T20 chain: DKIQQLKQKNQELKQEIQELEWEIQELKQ

For the next experiment, the target named is T21, 4H3112-bN.
T21 chain: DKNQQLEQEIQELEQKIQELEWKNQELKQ

For another experiment, the target named is T22, 4H3427-bN.
T22 chain: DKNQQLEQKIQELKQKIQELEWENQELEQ

The next experiment addresses T23, 4H346-bN.
T23 chain: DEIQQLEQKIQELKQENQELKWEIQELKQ

For the next experiment, the target named is T24, 4H3926-bN.
T24 chain: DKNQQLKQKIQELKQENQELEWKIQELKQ

Another experiment concerns the target T25, 4H4073-bN.
T25 chain: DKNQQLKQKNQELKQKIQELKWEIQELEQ

For another experiment, the target named is T26, 4H457-bN.
T26 chain: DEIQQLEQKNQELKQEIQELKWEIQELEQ

A further experiment addresses T27, 4H575-bN.
T27 chain: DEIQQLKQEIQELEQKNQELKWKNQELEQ

Another experiment concerns the target T28, 4H683-bN.
T28 chain: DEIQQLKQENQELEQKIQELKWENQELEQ

In a further experiment the target is T29, 4H754-bN.
T29 chain: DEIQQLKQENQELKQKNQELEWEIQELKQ

The target in the next experiment is T30, 4H780-bN.
T30 chain: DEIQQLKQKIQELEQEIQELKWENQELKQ

The target of the next experiment is T31, 4H797-bN.
T31 chain: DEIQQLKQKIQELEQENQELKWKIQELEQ

A further experiment deals with T32, 4H855-bN.
T32 chain: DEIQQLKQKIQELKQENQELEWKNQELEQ

Another experiment addresses T33, 4H918-bN.
T33 chain: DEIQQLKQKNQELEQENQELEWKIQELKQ

A further experiment deals with T34, 4H953-bN.
T34 chain: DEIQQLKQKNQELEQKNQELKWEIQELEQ

Another experiment concerns the target T35, 4H968-bN.
T35 chain: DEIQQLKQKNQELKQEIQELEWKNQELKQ

Another experiment concerns the target T36, 4H1158-bH.
T36 chain: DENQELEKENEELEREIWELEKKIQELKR

Another experiment addresses T37, 4H118-bH.
T37 chain: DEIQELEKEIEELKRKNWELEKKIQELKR

The next experiment addresses T38, 4H170-bH.
T38 chain: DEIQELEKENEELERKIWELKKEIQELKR

A further experiment deals with T39, 4H1831-bH.
T39 chain: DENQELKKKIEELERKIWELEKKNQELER

For the next experiment, the target named is T40, 4H2586-bH.
T40 chain: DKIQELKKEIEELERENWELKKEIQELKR

A further experiment has as its target T41, 4H2627-bH.
T41 chain: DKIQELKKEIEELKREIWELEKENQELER

The target in a further experiment is T42, 4H2673-bH.
T42 chain: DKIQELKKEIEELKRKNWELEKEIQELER

For the next experiment, the target named is T43, 4H2702-bH.
T43 chain: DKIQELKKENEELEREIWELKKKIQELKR

Another experiment has as its target T44, 4H3010-bH.
T44 chain: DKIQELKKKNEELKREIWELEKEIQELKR

In the next experiment the target is T45, 4H3112-bH.
T45 chain: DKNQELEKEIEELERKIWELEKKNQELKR

The next experiment addresses T46, 4H3427-bH.
T46 chain: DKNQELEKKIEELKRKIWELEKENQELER

For a further experiment, the target named is T47, 4H346-bH.
T47 chain: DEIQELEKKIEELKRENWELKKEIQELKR

The target of a further experiment is T48, 4H3926-bH.
T48 chain: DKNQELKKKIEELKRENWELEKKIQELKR

For the next experiment, the target named is T49, 4H4073-bH.
T49 chain: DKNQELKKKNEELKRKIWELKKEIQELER

In a further experiment the target is T50, 4H457-bH.
T50 chain: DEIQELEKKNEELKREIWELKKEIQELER

A further experiment has as its target T51, 4H575-bH.
T51 chain: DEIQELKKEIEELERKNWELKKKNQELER

In another experiment the target is T52, 4H683-bH.
T52 chain: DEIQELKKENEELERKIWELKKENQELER

The next experiment addresses T53, 4H754-bH.
T53 chain: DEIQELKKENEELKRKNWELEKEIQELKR

The target in a further experiment is T54, 4H780-bH.
T54 chain: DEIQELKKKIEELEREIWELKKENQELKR

The target in a further experiment is T55, 4H797-bH.
T55 chain: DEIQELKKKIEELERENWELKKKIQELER

The next experiment deals with T56, 4H855-bH.
T56 chain: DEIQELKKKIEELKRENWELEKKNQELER

The target in another experiment is T57, 4H918-bH.
T57 chain: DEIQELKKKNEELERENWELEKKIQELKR

The next experiment has as its target T58, 4H953-bH.
T58 chain: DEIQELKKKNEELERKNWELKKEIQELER

The target of the next experiment is T59, 4H968-bH.
T59 chain: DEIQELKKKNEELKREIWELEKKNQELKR

The target in the next experiment is T60, 4H1387-bH.
T60 chain: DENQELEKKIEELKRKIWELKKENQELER

Another experiment deals with T61, 4H1406-bH.
T61 chain: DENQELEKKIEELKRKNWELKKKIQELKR

In the next experiment the target is T62, 4H3592-bH.
T62 chain: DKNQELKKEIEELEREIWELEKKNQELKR

The next experiment deals with T63, 4H3601-bH.
T63 chain: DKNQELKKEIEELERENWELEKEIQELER

The target in another experiment is T64, 4H3907-bH.
T64 chain: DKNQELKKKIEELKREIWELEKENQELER

The target of the next experiment is T65, 4H4001-bH.
T65 chain: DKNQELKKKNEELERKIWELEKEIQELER

A further experiment addresses T66, 4H4038-bH.
T66 chain: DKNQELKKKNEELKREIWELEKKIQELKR

A further experiment has as its target T67, 4H850-bN.
T67 chain: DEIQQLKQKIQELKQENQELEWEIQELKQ

With DKNAQLKEKIAALKEKIQQLKEENQALEY [P12A], the interaction score is -1.24 with P12A; -1.2 with P1A; -1.43 in the experiment with P2A; 0.438 with P3A; -1.48 with P4A; -1.22 in the experiment with P5A. In addition, the interaction score was -1.16 with P6A, -1.15 in the experiment with P7A, -1.25 in the experiment with P8A and -0.254 in the experiment with P9A.

Regarding DENQALEQEIAQLEQEIAALEQKNAQLKY [P11A], the interaction score is -0.318 in the experiment with P11A; 2.09 with P12A; -0.233 in the experiment with P1A; -0.397 with P2A; 0.195 with P3A; 1.99 with P4A. Moreover, the interaction score with P5A was 0.167; in the experiment with P6A, -0.873; with P7A, -1.77; in the experiment with P8A, -0.16; with P9A, 0.145.

For DENQQLEQENQELEQEIQELEWKIQELKQ [4H1158-bN], the interaction score with 4H1158-bN was 0.0264; with 4H118-bN, 0.579; with 4H170-bN it was -0.262; with 4H1831-bN, -0.553; in the experiment with 4H2586-bN it was 0.693; with 4H2627-bN, -1.89. Further, the interaction score in the experiment with 4H2673-bN is -1.07; with 4H2702-bN, -0.191; with 4H3010-bN, 1.32; with 4H3112-bN it was 0.501; with 4H3427-bN, -0.273; with 4H346-bN it was -0.45. For the same molecule, the interaction score with 4H3926-bN was -1.19; with 4H4073-bN it was 2.1; with 4H457-bN, 0.107; with 4H575-bN it was -0.306; with 4H683-bN, 0.827; with 4H754-bN, 0.195. For the same molecule, the interaction score with 4H780-bN is -0.000435; in the experiment with 4H797-bN, -0.804; with 4H855-bN it was 0.326; with 4H918-bN, -1.72; with 4H953-bN, 0.0849; in the experiment with 4H968-bN it was -1.23.

Turning to DENQELEKENEELEREIWELEKKIQELKR [4H1158-bH], the interaction score in the experiment with 4H1158-bH was 0.619; with 4H118-bH it was 0.729; with 4H170-bH, 0.0131; in the experiment with 4H1831-bH it was 0.197; with 4H2586-bH, 0.198; with 4H2627-bH, 1.81. Further, the interaction score with 4H2673-bH is 0.836; with 4H2702-bH, 0.109; with 4H3010-bH it was 1.95; with 4H3112-bH, -0.598; with 4H3427-bH it was 0.596; in the experiment with 4H346-bH it was 0.268. For the same molecule, the interaction score with 4H3926-bH turned out to be 1.63; with 4H4073-bH, 1.57; with 4H457-bH, 0.951; with 4H575-bH, 0.888; with 4H683-bH, 1.13; with 4H754-bH, 0.159. For the same molecule, the interaction score is 0.975 with 4H780-bH; 0.508 with 4H797-bH; -0.335 with 4H855-bH; -0.233 with 4H918-bH; 0.0112 with 4H953-bH; 0.725 with 4H968-bH.

As for DENQELEKKIEELKRKIWELKKENQELER [4H1387-bH], the interaction score with 4H1387-bH was 0.423; in the experiment with 4H1406-bH, -0.693; with 4H3592-bH, 1.37; in the experiment with 4H3601-bH, -0.847; with 4H3907-bH, 1.59; in the experiment with 4H4001-bH it was 0.333. In addition, the interaction score with 4H4038-bH is 1.09; with 4H850-bN, 0.44.
